Assay results as given in patent US20050020492A1 (MERCK, published 2005).
Read-outs that look alike come from different tables or passages of the source. Each block holds one binder with its values, some of them ahead of it. Positions of bridges follow the written chain, without caps; N, C: chain ends. Non-standard residues stand in square brackets, D forms with d. Cha = N[C@@H](CC1CCCCC1)C(=O)O

Key:
[1] = target: T1, human MCH-1R (human, UniProt Q99705 1-353); experiment: SPA, displacement of [125I]-[Phe13,Tyr19]-hMCH, CHO/MCH-1R membranes
T1 construct: Function: 293AEQ17/MCH-1R cells; also called hMCH-1R
T1 sequence (Q99705 whole entry): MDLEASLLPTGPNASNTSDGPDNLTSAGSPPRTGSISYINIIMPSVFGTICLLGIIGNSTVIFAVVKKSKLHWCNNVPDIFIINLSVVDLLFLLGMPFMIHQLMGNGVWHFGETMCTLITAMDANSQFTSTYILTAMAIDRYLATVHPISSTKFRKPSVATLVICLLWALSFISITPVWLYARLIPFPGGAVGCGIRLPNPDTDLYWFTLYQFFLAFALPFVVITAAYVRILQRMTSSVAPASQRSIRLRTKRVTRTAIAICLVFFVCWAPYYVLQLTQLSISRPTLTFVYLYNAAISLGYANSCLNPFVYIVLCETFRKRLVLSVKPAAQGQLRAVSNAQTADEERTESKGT
Description: (§1) After equilibrating at room temperature for 3 hours, the plates were read in a TopCount (Packard, Meriden, Conn.). IC₅₀ calculations were performed using Prism 3.0 (GraphPad. Software, San Diego, Calif.). The IC₅₀ values were measured in three different experiments.

[2] = target: T2, human MCH-2R (human, UniProt Q969V1 1-340); experiment: SPA, displacement of [125I]-[Phe13,Tyr19]-hMCH, MCH-2R membranes
T2 construct: Function: 293AEQ17/MCH-2R cells; also called hMCH-2R
T2 sequence (Q969V1 whole entry): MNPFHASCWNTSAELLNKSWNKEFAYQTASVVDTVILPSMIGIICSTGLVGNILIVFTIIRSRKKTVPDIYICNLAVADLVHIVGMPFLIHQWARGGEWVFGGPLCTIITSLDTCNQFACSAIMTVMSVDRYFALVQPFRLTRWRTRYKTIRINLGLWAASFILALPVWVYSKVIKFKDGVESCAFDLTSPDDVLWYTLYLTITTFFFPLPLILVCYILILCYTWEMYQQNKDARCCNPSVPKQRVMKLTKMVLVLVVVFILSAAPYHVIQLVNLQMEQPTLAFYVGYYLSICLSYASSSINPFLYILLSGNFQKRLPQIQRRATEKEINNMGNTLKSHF
Description: as §1

[3] = target: T1, human MCH-1R; experiment: cell-based or functional assay
[4] = target: T2, human MCH-2R; experiment: cell-based or functional assay
[5] = target: T1, human MCH-1R; experiment: ratio of the two SPA IC50s
[6] = target: T1, human MCH-1R; experiment: cell-based or functional assay; remark: listed apart in the source
[7] = target: T2, human MCH-2R; experiment: cell-based or functional assay; remark: listed apart in the source
[8] = target: T2, human MCH-2R; experiment: SPA, displacement of [125I]-[Phe13,Tyr19]-hMCH, MCH-2R membranes; remark: listed apart in the source
Description: as §1

B2: SEQ. ID. NO. 12 (Ac-D-Glu^6 analog of Ac-hMCH(6-16)-NH2) (peptide)
peptide: XCMLGRVYRPC
modifications: not fully specified; N-terminal acetyl; D-Glu at position 6; C-terminal amide; disulfide cycle
Activation %, aequorin bioluminescence [6]: 100%
Activation %, aequorin bioluminescence [7]: 20%

B3: SEQ. ID. NO. 20 (Phe^10 analog of Ac-hMCH(6-16)-NH2) (peptide)
peptide: Ac-RCMLFRVYRPC-NH2
modifications: disulfide 2-11 (inferred)
IC50 [1]: 0.1 nM
IC50 [2]: 1.9 nM
Activation %, aequorin bioluminescence [3]: 75%
EC50, aequorin bioluminescence [3]: 66 nM
Selectivity 2/1 (MCH-2R/MCH-1R EC50 activity ratio) [3]: 0.75 ratio
Activation %, aequorin bioluminescence [4]: 88%
EC50, aequorin bioluminescence [4]: 50 nM
Selectivity 2/1 (MCH-2R/MCH-1R IC50 ratio) [5]: 19 ratio

B5: SEQ. ID. NO. 22 (Pro^10 analog of Ac-hMCH(6-16)-NH2) (peptide)
peptide: Ac-RCMLPRVYRPC-NH2
modifications: disulfide 2-11 (inferred)
IC50 [1]: 760 nM
IC50 [2]: 3500 nM
Activation %, aequorin bioluminescence [3]: 10%
EC50, aequorin bioluminescence [3]: > 10000 nM
Activation %, aequorin bioluminescence [4]: 13%
EC50, aequorin bioluminescence [4]: > 10000 nM
Selectivity 2/1 (MCH-2R/MCH-1R IC50 ratio) [5]: 5 ratio

B6: SEQ. ID. NO. 24 (Lys^10 analog of Ac-hMCH(6-16)-NH2) (peptide)
peptide: Ac-RCMLKRVYRPC-NH2
modifications: disulfide 2-11 (inferred)
IC50 [1]: 17 nM
IC50 [2]: 1460 nM
Activation %, aequorin bioluminescence [3]: 43%
EC50, aequorin bioluminescence [3]: 5700 nM
Selectivity 2/1 (MCH-2R/MCH-1R EC50 activity ratio) [3]: 1 ratio
Activation %, aequorin bioluminescence [4]: 40%
EC50, aequorin bioluminescence [4]: 6050 nM
Selectivity 2/1 (MCH-2R/MCH-1R IC50 ratio) [5]: 86 ratio

B9: SEQ. ID. NO. 23 (Arg^10 analog of Ac-hMCH(6-16)-NH2) (peptide)
peptide: Ac-RCMLRRVYRPC-NH2
modifications: disulfide 2-11 (inferred)
IC50 [1]: 640 nM
IC50 [2]: 420 nM
Activation %, aequorin bioluminescence [3]: 7%
EC50, aequorin bioluminescence [3]: > 10000 nM
Activation %, aequorin bioluminescence [4]: 38%
EC50, aequorin bioluminescence [4]: 1660 nM
Selectivity 2/1 (MCH-2R/MCH-1R IC50 ratio) [5]: 0.7 ratio

B10: SEQ. ID. NO. 13 (Ac-D-Lys^6 analog of Ac-hMCH(6-16)-NH2) (peptide)
peptide: XCMLGRVYRPC
HELM: PEPTIDE1{[ac].[dK].C.M.L.G.R.V.Y.R.P.C.[am]}$PEPTIDE1,PEPTIDE1,3:R3-12:R3$$$V2.0
SMILES: CSCC[C@@H]1NC(=O)[C@@H](NC(=O)[C@@H](CCCCN)NC(C)=O)CSSC[C@@H](C(N)=O)NC(=O)[C@@H]2CCCN2C(=O)[C@H](CCCNC(=N)N)NC(=O)[C@H](Cc2ccc(O)cc2)NC(=O)[C@H](C(C)C)NC(=O)[C@H](CCCNC(=N)N)NC(=O)CNC(=O)[C@H](CC(C)C)NC1=O
IC50 [8]: 1030 nM
IC50 [1]: 0.3 nM
Activation %, aequorin bioluminescence [6]: 130%
EC50, aequorin bioluminescence [6]: 94 nM
Activation %, aequorin bioluminescence [7]: 55%
EC50, aequorin bioluminescence [7]: 2100 nM

B11: SEQ. ID. NO. 19 (Cha^10 analog of Ac-hMCH(6-16)-NH2) (peptide)
peptide: Ac-RCML[Cha]RVYRPC-NH2
modifications: disulfide 2-11
IC50 [1]: 5 nM
IC50 [2]: 55 nM
Activation %, aequorin bioluminescence [3]: 76%
EC50, aequorin bioluminescence [3]: 1200 nM
Selectivity 2/1 (MCH-2R/MCH-1R EC50 activity ratio) [3]: 0.25 ratio
Activation %, aequorin bioluminescence [4]: 74%
EC50, aequorin bioluminescence [4]: 300 nM
Selectivity 2/1 (MCH-2R/MCH-1R IC50 ratio) [5]: 11 ratio

Next, values leading:

IC50 [1]: 3.1 nM
IC50 [2]: 130 nM
Activation %, aequorin bioluminescence [3]: 91%
EC50, aequorin bioluminescence [3]: 920 nM
Selectivity 2/1 (MCH-2R/MCH-1R EC50 activity ratio) [3]: 0.3 ratio
Activation %, aequorin bioluminescence [4]: 68%
EC50, aequorin bioluminescence [4]: 310 nM
Selectivity 2/1 (MCH-2R/MCH-1R IC50 ratio) [5]: 42 ratio
B1: SEQ. ID. NO. 27 (Cit^10 analog of Ac-hMCH(6-16)-NH2) (peptide)
peptide: RCMLXRVYRPC
HELM: PEPTIDE1{[ac].R.C.M.L.[Cit].R.V.Y.R.P.C.[am]}$PEPTIDE1,PEPTIDE1,3:R3-12:R3$$$V2.0
SMILES: CSCC[C@@H]1NC(=O)[C@@H](NC(=O)[C@H](CCCNC(=N)N)NC(C)=O)CSSC[C@@H](C(N)=O)NC(=O)[C@@H]2CCCN2C(=O)[C@H](CCCNC(=N)N)NC(=O)[C@H](Cc2ccc(O)cc2)NC(=O)[C@H](C(C)C)NC(=O)[C@H](CCCNC(=N)N)NC(=O)[C@H](CCCNC(N)=O)NC(=O)[C@H](CC(C)C)NC1=O
notes: also called Cit^10 peptide

IC50 [1]: 290 nM
Activation %, aequorin bioluminescence [3]: 21%
EC50, aequorin bioluminescence [3]: > 10000 nM
Activation %, aequorin bioluminescence [4]: 22%
EC50, aequorin bioluminescence [4]: > 10000 nM
B4: SEQ. ID. NO. 28 (Glu^10 analog of Ac-hMCH(6-16)-NH2) (peptide)
peptide: Ac-RCMLERVYRPC-NH2
modifications: disulfide 2-11 (inferred)
notes: also called Glu^10 peptide

IC50 [1]: 0.28 nM
IC50 [2]: 490 nM
Activation %, aequorin bioluminescence [3]: 126%
EC50, aequorin bioluminescence [3]: 51 nM
Selectivity 2/1 (MCH-2R/MCH-1R EC50 activity ratio) [3]: 4.7 ratio
Activation %, aequorin bioluminescence [4]: 86%
EC50, aequorin bioluminescence [4]: 240 nM
Selectivity 2/1 (MCH-2R/MCH-1R IC50 ratio) [5]: 1800 ratio
B7: SEQ. ID. NO. 25 (Asn^10 analog of Ac-hMCH(6-16)-NH2) (peptide)
peptide: Ac-RCMLNRVYRPC-NH2
modifications: disulfide 2-11 (inferred)
notes: also called Asn^10 peptide

IC50 [1]: 0.54 nM
IC50 [2]: 55 nM
Activation %, aequorin bioluminescence [3]: 120%
EC50, aequorin bioluminescence [3]: 130 nM
Selectivity 2/1 (MCH-2R/MCH-1R EC50 activity ratio) [3]: 0.7 ratio
Activation %, aequorin bioluminescence [4]: 87%
EC50, aequorin bioluminescence [4]: 89 nM
Selectivity 2/1 (MCH-2R/MCH-1R IC50 ratio) [5]: 100 ratio
B8: SEQ. ID. NO. 26 (Ser^10 analog of Ac-hMCH(6-16)-NH2) (peptide)
peptide: Ac-RCMLSRVYRPC-NH2
modifications: disulfide 2-11 (inferred)
notes: also called Ser^10 peptide
